{"source": "paper PMC6963985", "origin": "cited, not measured here", "target": "CTLA-4 (Homo sapiens) (UniProt P16410)", "sequence (P16410 36-161)": "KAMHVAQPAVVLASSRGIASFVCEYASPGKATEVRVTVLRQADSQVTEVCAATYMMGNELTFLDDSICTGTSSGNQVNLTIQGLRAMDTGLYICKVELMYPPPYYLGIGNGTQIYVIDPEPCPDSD", "data": [{"substance": "Tremelimumab", "values": [{"measurement": "Kd", "result": 5.9, "unit": "nM"}]}]}
